# According to paper PMC13462943, “De novo EHMT2 variants cause an autosomal dominant EHMT2-related Kleefstra syndrome via loss of G9a methyltransferase activity” (Nature Communications, 2026):
# Target: the molecule itself
# Experiment: native MS; dimerization of apo proteins: 5 µM protein in 150 mM ammonium acetate pH 7.5, 0.5 mM DTT; monomer-dimer distribution quantified
protein,measurement,value
"GLP methyltransferase domain (aa 1001-1266), wild type (domain or fragment, human, UniProt Q9H9B1-1 1001-1266, looked up, GLP (EHMT1), human, methyltransferase (SET) domain, aa 1001-1266; NM_024757.5 is printed for the EHMT1 variant of the Kleefstra syndrome 1 patient, not expressly for this construct; also called EHMT1; euchromatin histone lysine methyltransferase 1; source: E. coli BL21-CodonPlus (DE3)-RIPL, pET28a, purified (IMAC, TEV cleavage, SEC, second IMAC); not shown: His6, N-terminal, cleaved) DRPSPVERIVSRDIARGYERIPIPCVNAVDSEPCPSNYKYVSQNCVTSPMNIDRNITHLQYCVCIDDCSSSNCMCGQLSMRCWYDKDGRLLPEFNMAEPPLIFECNHACSCWRNCRNRVVQNGLRARLQLYRTRDMGWGVRSLQDIPPGTFVCEYVGELISDSEADVREEDSYLFDLDNKDGEVYCIDARFYGNVSRFINHHCEPNLVPVRVFMAHQDLRFPRIAFFSTRLIEAGEQLGFDYGERFWDIKGKLFSCRCGSPKCRHS",stoichiometry N,2
"G9a methyltransferase domain (aa residues 913-1193), K1162R (domain or fragment, human, UniProt Q96KQ7-1 913-1193, looked up, G9a (EHMT2), human, methyltransferase (SET) domain, aa residues 913-1193, patient variant; numbered on NP_006700.3; De novo patient variant made by site-directed mutagenesis; also called p.Lys1162Arg; c.3485A>G; source: E. coli BL21-CodonPlus (DE3)-RIPL, pET28a, purified (IMAC, TEV cleavage, SEC, second IMAC); not shown: His6, N-terminal, cleaved) NRAIRTEKIICRDVARGYENVPIPCVNGVDGEPCPEDYKYISENCETSTMNIDRNITHLQHCTCVDDCSSSNCLCGQLSIRCWYDKDGRLLQEFNKIEPPLIFECNQACSCWRNCKNRVVQSGIKVRLQLYRTAKMGWGVRALQTIPQGTFICEYVGELISDAEADVREDDSYLFDLDNKDGEVYCIDARYYGNISRFINHLCDPNIIPVRVFMLHQDLRFPRIAFFSSRDIRTGEELGFDYGDRFWDIRSKYFTCQCGSEKCKHSAEAIALEQSRLARLD",stoichiometry N,2
"G9a methyltransferase domain (aa residues 913-1193), A1077T (domain or fragment, human, UniProt Q96KQ7-1 913-1193, looked up, G9a (EHMT2), human, methyltransferase (SET) domain, aa residues 913-1193, patient variant; numbered on NP_006700.3; De novo patient variant made by site-directed mutagenesis; also called p.Ala1077Thr; c.3229G>A; source: E. coli BL21-CodonPlus (DE3)-RIPL, pET28a, purified (IMAC, TEV cleavage, SEC, second IMAC); not shown: His6, N-terminal, cleaved) NRAIRTEKIICRDVARGYENVPIPCVNGVDGEPCPEDYKYISENCETSTMNIDRNITHLQHCTCVDDCSSSNCLCGQLSIRCWYDKDGRLLQEFNKIEPPLIFECNQACSCWRNCKNRVVQSGIKVRLQLYRTAKMGWGVRALQTIPQGTFICEYVGELISDAETDVREDDSYLFDLDNKDGEVYCIDARYYGNISRFINHLCDPNIIPVRVFMLHQDLRFPRIAFFSSRDIRTGEELGFDYGDRFWDIKSKYFTCQCGSEKCKHSAEAIALEQSRLARLD",stoichiometry N,2
"G9a methyltransferase domain (aa residues 913-1193), F1158L (domain or fragment, human, UniProt Q96KQ7-1 913-1193, looked up, G9a (EHMT2), human, methyltransferase (SET) domain, aa residues 913-1193, patient variant; numbered on NP_006700.3; De novo patient variant made by site-directed mutagenesis; also called p.Phe1158Leu; c.3472T>C; source: E. coli BL21-CodonPlus (DE3)-RIPL, pET28a, purified (IMAC, TEV cleavage, SEC, second IMAC); not shown: His6, N-terminal, cleaved) NRAIRTEKIICRDVARGYENVPIPCVNGVDGEPCPEDYKYISENCETSTMNIDRNITHLQHCTCVDDCSSSNCLCGQLSIRCWYDKDGRLLQEFNKIEPPLIFECNQACSCWRNCKNRVVQSGIKVRLQLYRTAKMGWGVRALQTIPQGTFICEYVGELISDAEADVREDDSYLFDLDNKDGEVYCIDARYYGNISRFINHLCDPNIIPVRVFMLHQDLRFPRIAFFSSRDIRTGEELGFDYGDRLWDIKSKYFTCQCGSEKCKHSAEAIALEQSRLARLD",stoichiometry N,2
"G9a methyltransferase domain (aa residues 913-1193), wild type (domain or fragment, human, UniProt Q96KQ7-1 913-1193, looked up, G9a (EHMT2), human, methyltransferase (SET) domain, aa residues 913-1193; variants numbered on NP_006700.3; His tag removed by TEV protease; also called EHMT2; euchromatin histone lysine methyltransferase 2; source: E. coli BL21-CodonPlus (DE3)-RIPL, pET28a, purified (IMAC, TEV cleavage, SEC, second IMAC); not shown: His6, N-terminal, cleaved) NRAIRTEKIICRDVARGYENVPIPCVNGVDGEPCPEDYKYISENCETSTMNIDRNITHLQHCTCVDDCSSSNCLCGQLSIRCWYDKDGRLLQEFNKIEPPLIFECNQACSCWRNCKNRVVQSGIKVRLQLYRTAKMGWGVRALQTIPQGTFICEYVGELISDAEADVREDDSYLFDLDNKDGEVYCIDARYYGNISRFINHLCDPNIIPVRVFMLHQDLRFPRIAFFSSRDIRTGEELGFDYGDRFWDIKSKYFTCQCGSEKCKHSAEAIALEQSRLARLD",stoichiometry N,2
"G9a methyltransferase domain (aa residues 913-1193), N1112S (domain or fragment, human, UniProt Q96KQ7-1 913-1193, looked up, G9a (EHMT2), human, methyltransferase (SET) domain, aa residues 913-1193, patient variant; numbered on NP_006700.3; De novo patient variant made by site-directed mutagenesis; also called p.Asn1112Ser; c.3335A>G; source: E. coli BL21-CodonPlus (DE3)-RIPL, pET28a, purified (IMAC, TEV cleavage, SEC, second IMAC); not shown: His6, N-terminal, cleaved) NRAIRTEKIICRDVARGYENVPIPCVNGVDGEPCPEDYKYISENCETSTMNIDRNITHLQHCTCVDDCSSSNCLCGQLSIRCWYDKDGRLLQEFNKIEPPLIFECNQACSCWRNCKNRVVQSGIKVRLQLYRTAKMGWGVRALQTIPQGTFICEYVGELISDAEADVREDDSYLFDLDNKDGEVYCIDARYYGNISRFISHLCDPNIIPVRVFMLHQDLRFPRIAFFSSRDIRTGEELGFDYGDRFWDIKSKYFTCQCGSEKCKHSAEAIALEQSRLARLD",stoichiometry N,2
"G9a methyltransferase domain (aa residues 913-1193), A1077S (domain or fragment, human, UniProt Q96KQ7-1 913-1193, looked up, G9a (EHMT2), human, methyltransferase (SET) domain, aa residues 913-1193, patient variant; numbered on NP_006700.3; De novo patient variant made by site-directed mutagenesis; also called p.Ala1077Ser; c.3229G>T; source: E. coli BL21-CodonPlus (DE3)-RIPL, pET28a, purified (IMAC, TEV cleavage, SEC, second IMAC); not shown: His6, N-terminal, cleaved) NRAIRTEKIICRDVARGYENVPIPCVNGVDGEPCPEDYKYISENCETSTMNIDRNITHLQHCTCVDDCSSSNCLCGQLSIRCWYDKDGRLLQEFNKIEPPLIFECNQACSCWRNCKNRVVQSGIKVRLQLYRTAKMGWGVRALQTIPQGTFICEYVGELISDAESDVREDDSYLFDLDNKDGEVYCIDARYYGNISRFINHLCDPNIIPVRVFMLHQDLRFPRIAFFSSRDIRTGEELGFDYGDRFWDIKSKYFTCQCGSEKCKHSAEAIALEQSRLARLD",stoichiometry N,2
"G9a methyltransferase domain (aa residues 913-1193), Del 1163-4 (domain or fragment, human, UniProt Q96KQ7-1 913-1193, looked up, G9a (EHMT2), human, methyltransferase (SET) domain, aa residues 913-1193, patient variant; numbered on NP_006700.3; De novo patient variant made by site-directed mutagenesis; also called p.Ser1163_Lys1164del; c.3487_3492del; source: E. coli BL21-CodonPlus (DE3)-RIPL, pET28a, purified (IMAC, TEV cleavage, SEC, second IMAC); not shown: His6, N-terminal, cleaved) NRAIRTEKIICRDVARGYENVPIPCVNGVDGEPCPEDYKYISENCETSTMNIDRNITHLQHCTCVDDCSSSNCLCGQLSIRCWYDKDGRLLQEFNKIEPPLIFECNQACSCWRNCKNRVVQSGIKVRLQLYRTAKMGWGVRALQTIPQGTFICEYVGELISDAEADVREDDSYLFDLDNKDGEVYCIDARYYGNISRFINHLCDPNIIPVRVFMLHQDLRFPRIAFFSSRDIRTGEELGFDYGDRFWDIKYFTCQCGSEKCKHSAEAIALEQSRLARLD",stoichiometry N,2
"G9a methyltransferase domain (aa residues 913-1193), Del 1076-9 (domain or fragment, human, UniProt Q96KQ7-1 913-1193, looked up, G9a (EHMT2), human, methyltransferase (SET) domain, aa residues 913-1193, patient variant; numbered on NP_006700.3; also called p.Glu1076_Val1079del; c.3225_3236del; source: E. coli BL21-CodonPlus (DE3)-RIPL, pET28a, purified (IMAC, TEV cleavage, SEC, second IMAC); not shown: His6, N-terminal, cleaved) NRAIRTEKIICRDVARGYENVPIPCVNGVDGEPCPEDYKYISENCETSTMNIDRNITHLQHCTCVDDCSSSNCLCGQLSIRCWYDKDGRLLQEFNKIEPPLIFECNQACSCWRNCKNRVVQSGIKVRLQLYRTAKMGWGVRALQTIPQGTFICEYVGELISDAREDDSYLFDLDNKDGEVYCIDARYYGNISRFINHLCDPNIIPVRVFMLHQDLRFPRIAFFSSRDIRTGEELGFDYGDRFWDIKSKYFTCQCGSEKCKHSAEAIALEQSRLARLD",stoichiometry N,2
